Patent US20120238494A1 (published 2012)
Numbered stars: 1 amine (or outer) side, 2 acyl side, 3 side chain; on linkers, the order of the positions; unused ones are H or OH. Square brackets hold non-standard residues; d marks the D form. dSer(tBu) = CC(C)(C)OC[C@@H](N[*:1])C(=O)[*:2]; pGlu = O=C1CC[C@@H](C(=O)O)N1; azaGly = NNC(=O)O

How the values were obtained:
[1] = biological target: T1, human GnRH receptor (human, UniProt P30968 1-328); assay: cell-based or functional assay
T1 construct: whole, on cells; Endogenous receptor; also called LHRH receptor; human pituitary GnRH receptor
T1 sequence (looked up): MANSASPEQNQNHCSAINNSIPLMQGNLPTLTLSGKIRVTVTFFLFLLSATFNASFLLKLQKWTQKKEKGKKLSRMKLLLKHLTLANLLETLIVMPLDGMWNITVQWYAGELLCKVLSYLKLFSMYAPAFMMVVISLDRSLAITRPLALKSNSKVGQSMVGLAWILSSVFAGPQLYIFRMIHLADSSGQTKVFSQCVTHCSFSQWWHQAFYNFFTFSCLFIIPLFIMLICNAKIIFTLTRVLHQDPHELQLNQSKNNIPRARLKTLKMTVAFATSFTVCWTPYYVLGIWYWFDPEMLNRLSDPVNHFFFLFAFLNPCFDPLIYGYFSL

[2] = biological target: T2, rat GnRH receptor (rat pituitaries) (rat, UniProt P30969 1-327); assay: radioligand binding, displacement curves, rat pituitaries (control)
T2 construct: whole, on cells; Endogenous receptor of rat pituitary tissue, used as the control preparation
T2 sequence (looked up): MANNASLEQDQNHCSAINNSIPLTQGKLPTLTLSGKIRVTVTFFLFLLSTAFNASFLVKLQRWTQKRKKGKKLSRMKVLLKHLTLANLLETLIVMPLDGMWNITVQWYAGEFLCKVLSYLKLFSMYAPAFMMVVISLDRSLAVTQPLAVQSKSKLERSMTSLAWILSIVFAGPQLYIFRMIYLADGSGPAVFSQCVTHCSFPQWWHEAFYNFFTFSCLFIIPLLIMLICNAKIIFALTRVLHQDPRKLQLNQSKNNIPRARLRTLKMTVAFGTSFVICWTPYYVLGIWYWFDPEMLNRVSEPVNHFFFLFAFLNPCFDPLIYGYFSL

[3] = biological target: T1, human GnRH receptor; assay: radioligand binding, displacement curves, BLM human melanoma cell membranes
[4] = biological target: T1, human GnRH receptor; assay: radioligand binding, displacement curves, ME15392 human melanoma cell membranes

Molecule: Triptorelin, an LHRH agonist (Sigma Chemical Co., No. L9761) (peptide)
- inhibition of MV3 melanoma cell proliferation at 10^-4 M, 10^-5 M and 10^-6 M, from day 4 on [1]: 15%

Molecule: Antide, a LHRH antagonist (Sigma Chemical Co., No. A8802) (peptide)
- inhibition of MV3 melanoma cell proliferation at 10^-4 M [1]: 15%
- inhibition of MV3 melanoma cell proliferation at 10^-5 M [1]: 35%
- stimulation of MV3 melanoma cell growth at 10^-6 M [1]: 40%

Molecule: GnRH antagonist Cetrorelix (peptide)
- decrease of U-87MG cell proliferation at 10^-6 M [1]: 28%
- inhibition of U-87MG cell proliferation at 10^-5 M [1]: 30%

B1: GnRH agonist LHRH-A, ZOLADEX [D-Ser(tBu)^6Aza-Gly-LHRH] (peptide)
peptide: [pGlu]HWSY[dSer(tBu)]LRP[azaGly]-NH2
modifications: also: 125I-labelled tracer form, position not given here
notes: the unlabelled form was used in the cell assays; also called Goserelin
- Kd [2]: 1.5 to 2 nM
- Kd [3]: 0.7 to 1.1 nM
- Kd [4]: 0.1 to 0.6 nM
